Data published in patent US20220177587A1, “METHODS AND USES OF VARIANT CD80 FUSION PROTEINS AND RELATED CONSTRUCTS” (Alpine Immune Sciences, Inc., priority 2018, published 2022).
“And” between values parts separate entries of the source, which are not always exact repeats. Identical values can stand only once.

Legend:
CD28 = CD28 (Homo sapiens, UniProt P10747); assay: Jurkat/IL2 + K562/OKT3/PD-L1 reporter assay; type: cell-based; design: host or cells: Jurkat cells expressing an IL-2-luciferase reporter; conditions: K562/OKT3/PD-L1 aAPC, 50 nM; for Fold Increase over WT CD80-IgV-Fc / Relative Luciferase Units (RLU), CD80-Fc Conc. 50 nM: Table E7
allogeneic CD4+ T cells = assay: Mixed Lymphocyte Reaction (MLR), IFN-gamma; type: cell-based, human; conditions: Table E33; culture supernatant
Outline: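 Monocyte-derived DCs (7 days in rIL-4 500 U/ml plus rGM-CSF 250 U/ml), 10,000 matured cells, co-cultured with 100,000 allogeneic CD4+ T cells and variant CD80-Fc fusion proteins in Ex-Vivo 15 medium. IFN-gamma in supernatant measured by ELISA on day 5 against rIFN-gamma standard.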

human pan T cells = assay: Anti-CD3 coimmobilization assay, IFN-gamma; type: cell-based; conditions: Table E33; culture supernatant, 3 days
Outline: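 Plates coated overnight with 1 nM or 4 nM OKT3 anti-CD3 plus 1–80 nM rCD80.Fc variants, then washed. Purified human pan T cells or BC3 T cell clone (100,000/well) cultured 3 days in Ex-Vivo 15; supernatant IFN-gamma measured by ELISA.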

Row | Relative Luciferase Units (RLU), CD80-Fe Cone 50 nM (CD28; Table E8) | Molecule | MLR IFN-gamma levels (allogeneic CD4+ T cells) | Coimmobilization with anti-CD3 IFN-gamma (human pan T cells) | also measured
1 | – | Q33L/E35D/M47L/A71G/F925 (protein) VIHVTKEVKEVATLSCGHNVSVEELAQTRIYWLKDKKMVLTMMSGDLNIWPEYKNRTIFDITNNLSIVILGLRPSDEGTYECVVLKYEKDASKREHLAEVTLSVKADEPKSSDKTHTCPPCPAPEAEGAPSVFLFPPKPKDTLMISRTPEVTCVVVDVSHEDPEVKFNWYVDGVEVHNAKTKPREEQYNSTYRVVSVLTVLHQDWLNGKEYKCKVSNKALPAPIEKTISKAKGQPREPQVYTLPPSREEMTKNQVSLTCLVKGFYPSDIAVEWESNGQPENNYKTTPPVLDSDGSFFLYSKLTVDKSRWQQGNVFSCSVMHEALHNHYTQKSLSLSPG | – | – | Fold Increase over WT CD80-IgV-Fc (CD28): 0.7; Relative Luciferase Units (RLU), CD80-Fc Conc. 50 nM (CD28): 394 RLU
2 | – | H18Y/E35DN68M/L97Q (protein) VIHVTKEVKEVATLSCGYNVSVEELAQTRIYWQKDKKMVLTMMSGDMNIWPEYKNRTIFDITNNLSIMILALRPSDEGTYECVVLKYEKDAFKREHQAEVTLSVKADEPKSSDKTHTCPPCPAPEAEGAPSVFLFPPKPKDTLMISRTPEVTCVVVDVSHEDPEVKFNWYVDGVEVHNAKTKPREEQYNSTYRVVSVLTVLHQDWLNGKEYKCKVSNKALPAPIEKTISKAKGQPREPQVYTLPPSREEMTKNQVSLTCLVKGFYPSDIAVEWESNGQPENNYKTTPPVLDSDGSFFLYSKLTVDKSRWQQGNVFSCSVMHEALHNHYTQKSLSLSPG | – | – | Fold Increase over WT CD80-IgV-Fc (CD28): 7.7; Relative Luciferase Units (RLU), CD80-Fc Conc. 50 nM (CD28): 4336 RLU
3 | – | K36G/K37Q/M38I/L40M/F59L/E81V/L85R/K89N/A91T/F92P/K93V/R94L/E99G/T130A/N149S (protein) VIHVTKEVKEVATLSCGHNVSVEELAQTRIYWQKEGQIVMTMMSGDMNIWPEYKNRTILDITNNLSIVILALRPSDEGTYVCVVRKYENDTPVLEHLAGVTLSVKADFPTPSISDFEIPTSNIRRIICSASGGFPEPHLSWLENGEELSAINTTVSQDPETELYAVSSKLDFNMTTNHSFMCLIKYGHLRVNQTFNWNTTKQEHFPDN | 3095 pg/mL | 507 pg/mL | –
4 | – | E88D/K89R/D90K/A91G/F92Y/K93R (protein, CD80 v48 IgV) VIHVTKEVKEVATLSCGHNVSVEELAQTRIYWQKEKKMVLTMMSGDMNIWPEYKNRTIFDITNNLSIVILALRPSDEGTYECVVLKYDRKGYRREHLAEVTLSVKAD | 9356 pg/mL and 5922 pg/mL | 1125 pg/mL and 944 pg/mL | –
5 | – | R29V/M43Q/E81R/L85I/K89R/D90L/A91E/F92N/K93Q/R94G (protein) VIHVTKEVKEVATLSCGHNVSVEELAQTVIYWQKEKKMVLTMQSGDMNIWPEYKNRTIFDITNNLSIVILALRPSDEGTYRCVVIKYERLENQGEHLAEVTLSVKADFPTPSISDFEIPTSNIRRIICSTSGGFPEPHLSWLENGEELNAINTTVSQDPETELYAVSSKLDFNMTTNHSFMCLIKYGHLRVNQTFNWNTTKQEHFPDN | 11695 pg/mL | 342 pg/mL | –
6 | – | E24G/R29D/Y31L/Q33H/K36G/M38I/T41A/M43R/M47T/F59L/E81V/L85R/K89N/A91T/F92P/K93V/R94L/H96R/N149S/C182S (protein) VIHVTKEVKEVATLSCGHNVSVEGLAQTDILWHKEGKIVLAMRSGDTNIWPEYKNRTILDITNNLSIVILALRPSDEGTYVCVVRKYENDTPVLERLAEVTLSVKADFPTPSISDFEIPTSNIRRIICSTSGGFPEPHLSWLENGEELSAINTTVSQDPETELYAVSSKLDFNMTTNHSFMSLIKYGHLRVNQTFNWNTTKQEHFPDN | 13146 pg/mL | 406 pg/mL | –
7 | – | R29D/Y31L/Q33H/K36G/M38I/T41A/M43R/M47T/E81V/L85R/K89N/A91T/F92P/K93V/R94L/N149S (protein) VIHVTKEVKEVATLSCGHNVSVEELAQTDILWHKEGKIVLAMRSGDTNIWPEYKNRTIFDITNNLSIVILALRPSDEGTYVCVVRKYENDTPVLEHLAEVTLSVKADFPTPSISDFEIPTSNIRRIICSTSGGFPEPHLSWLENGEELSAINTTVSQDPETELYAVSSKLDFNMTTNHSFMCLIKYGHLRVNQTFNWNTTKQEHFPDN | 24029 pg/mL | 405 pg/mL | –
8 | 1230 RLU | H18Y/E35D/N48K (protein, UniProt P33681 35-288, looked up, variant H18Y E35D N48K) T-lymphocyte activation …: VIHVTKEVKEVATLSCGYNVSVEELAQTRIYWQKDKKMVLTMMSGDMKIWPEYKNRTIFDITNNLSIVILALRPSDEGTYECVVLKYEKDAFKREHLAEVTLSVKADFPTPSISDFEIPTSNIRRIICSTSGGFPEPHLSWLENGEELNAINTTVSQDPETELYAVSSKLDFNMTTNHSFMCLIKYGHLRVNQTFNWNTTKQEHFPDNLLPSWAITLISVNGIFVICCLTYCFAPRCRERRRNERLRRESVRPV | – | – | –
9 | 683 RLU | E35D/D46E/M47V/A71D (protein, UniProt P33681 35-288, looked up, variant E35D D46E M47V A71D) T-lymphocyte activation …: VIHVTKEVKEVATLSCGHNVSVEELAQTRIYWQKDKKMVLTMMSGEVNIWPEYKNRTIFDITNNLSIVILDLRPSDEGTYECVVLKYEKDAFKREHLAEVTLSVKADFPTPSISDFEIPTSNIRRIICSTSGGFPEPHLSWLENGEELNAINTTVSQDPETELYAVSSKLDFNMTTNHSFMCLIKYGHLRVNQTFNWNTTKQEHFPDNLLPSWAITLISVNGIFVICCLTYCFAPRCRERRRNERLRRESVRPV | – | – | –
10 | 897 RLU | E35D/M47V/N48T/L85Q (protein, UniProt P33681 35-288, looked up, variant E35D M47V N48T L85Q) T-lymphocyte activation …: VIHVTKEVKEVATLSCGHNVSVEELAQTRIYWQKDKKMVLTMMSGDVTIWPEYKNRTIFDITNNLSIVILALRPSDEGTYECVVQKYEKDAFKREHLAEVTLSVKADFPTPSISDFEIPTSNIRRIICSTSGGFPEPHLSWLENGEELNAINTTVSQDPETELYAVSSKLDFNMTTNHSFMCLIKYGHLRVNQTFNWNTTKQEHFPDNLLPSWAITLISVNGIFVICCLTYCFAPRCRERRRNERLRRESVRPV | – | – | Fold Increase over WT CD80-IgV-Fe (CD28; Table E8): 4.4
11 | 978 RLU | Q27H/E35D/D46V/M47L/A71G (protein, UniProt P33681 35-288, looked up, variant Q27H E35D D46V M47L A71G) T-lymphocyte activation …: VIHVTKEVKEVATLSCGHNVSVEELAHTRIYWQKDKKMVLTMMSGVLNIWPEYKNRTIFDITNNLSIVILGLRPSDEGTYECVVLKYEKDAFKREHLAEVTLSVKADFPTPSISDFEIPTSNIRRIICSTSGGFPEPHLSWLENGEELNAINTTVSQDPETELYAVSSKLDFNMTTNHSFMCLIKYGHLRVNQTFNWNTTKQEHFPDNLLPSWAITLISVNGIFVICCLTYCFAPRCRERRRNERLRRESVRPV | – | – | –
12 | 1023 RLU | E35D/T41S/M47V/A71G/K89N (protein, UniProt P33681 35-288, looked up, variant E35D T41S M47V A71G K89N) T-lymphocyte activation …: VIHVTKEVKEVATLSCGHNVSVEELAQTRIYWQKDKKMVLSMMSGDVNIWPEYKNRTIFDITNNLSIVILGLRPSDEGTYECVVLKYENDAFKREHLAEVTLSVKADFPTPSISDFEIPTSNIRRIICSTSGGFPEPHLSWLENGEELNAINTTVSQDPETELYAVSSKLDFNMTTNHSFMCLIKYGHLRVNQTFNWNTTKQEHFPDNLLPSWAITLISVNGIFVICCLTYCFAPRCRERRRNERLRRESVRPV | – | – | –
13 | – | T41I/A91G (protein, CD80 v44 ECD) VIHVTKEVKEVATLSCGHNVSVEELAQTRIYWQKEKKMVLIMMSGDMNIWPEYKNRTIFDITNNLSIVILALRPSDEGTYECVVLKYEKDGFKREHLAEVTLSVKADFPTPSISDFEIPTSNIRRIICSTSGGFPEPHLSWLENGEELNAINTTVSQDPETELYAVSSKLDFNMTTNHSFMCLIKYGHLRVNQTFNWNTTKQEHFPDN | 26052 pg/mL | 433 pg/mL | –
14 | – | K36G/L40M (protein) VIHVTKEVKEVATLSCGHNVSVEELAQTRIYWQKEGKMVMTMMSGDMNIWPEYKNRTIFDITNNLSIVILALRPSDEGTYECVVLKYEKDAFKREHLAEVTLSVKADFPTPSISDFEIPTSNIRRIICSTSGGFPEPHLSWLENGEELNAINTTVSQDPETELYAVSSKLDFNMTTNHSFMCLIKYGHLRVNQTFNWNTTKQEHFPDN | 30558 pg/mL | 699 pg/mL | –
15 | – | K36G/K37Q/M38I/L40M (protein, CD80 v49 ECD) VIHVTKEVKEVATLSCGHNVSVEELAQTRIYWQKEGQIVMTMMSGDMNIWPEYKNRTIFDITNNLSIVILALRPSDEGTYECVVLKYEKDAFKREHLAEVTLSVKADFPTPSISDFEIPTSNIRRIICSTSGGFPEPHLSWLENGEELNAINTTVSQDPETELYAVSSKLDFNMTTNHSFMCLIKYGHLRVNQTFNWNTTKQEHFPDN | 811 pg/mL | 427 pg/mL | –
16 | – | E88D/K89R/D90K/A91G/F92Y/K93R/N122S/N177S (protein) VIHVTKEVKEVATLSCGHNVSVEELAQTRIYWQKEKKMVLTMMSGDMNIWPEYKNRTIFDITNNLSIVILALRPSDEGTYECVVLKYDRKGYRREHLAEVTLSVKADFPTPSISDFEIPTSSIRRIICSTSGGFPEPHLSWLENGEELNAINTTVSQDPETELYAVSSKLDFNMTTSHSFMCLIKYGHLRVNQTFNWNTTKQEHFPDN | 6345 pg/mL | 773 pg/mL | –
